# Laboratory results from patent publication US20230140293A1.
# Tests used:
# [1] = target: CH505 w100.B6 gp120 (HIV-1); experiment: ELISA, gp120 on plate
# [2] = target: CH505 M11 gp120 (HIV-1); experiment: ELISA, gp120 on plate
# [3] = target: CH505 transmitted/founder (TF) gp120 (HIV-1); experiment: ELISA, gp120 on plate
# [4] = target: CH505 w030.28 gp120 (HIV-1); experiment: ELISA, gp120 on plate
# [5] = target: CH505 w053.31 gp120 (HIV-1); experiment: ELISA, gp120 on plate
# [6] = target: CH505 M5 gp120 (HIV-1); experiment: ELISA, gp120 on plate
# [7] = target: CH505 w078.33 gp120 (HIV-1); experiment: ELISA, gp120 on plate
# [8] = target: CH505 w078.15 gp120 (HIV-1); experiment: ELISA, gp120 on plate
# [9] = target: CH505 w020.14 gp120 (HIV-1); experiment: ELISA, gp120 on plate
# [10] = target: CH505 w053.16 gp120 (HIV-1); experiment: ELISA, gp120 on plate
# [11] = target: CH505 w030.21 gp120 (HIV-1); experiment: ELISA, gp120 on plate
# [12] = target: HIV-1 CH0505TF.G458Y Env on Env-pseudotyped virus produced in 293T cells (HIV-1); experiment: cell-based or functional assay
# [13] = target: HIV-1 CH0505TF (CH505 transmitted/founder) Env on Env-pseudotyped virus produced in 293T cells (HIV-1); experiment: cell-based or functional assay
# [14] = target: HIV-1 CH0505TF.N280D Env on Env-pseudotyped virus produced in 293T cells (HIV-1); experiment: cell-based or functional assay
# [15] = target: HIV-1 CH0505TF.S365P Env on Env-pseudotyped virus produced in 293T cells (HIV-1); experiment: cell-based or functional assay
# [16] = target: CH0505TF.gly3.461 Env, Env-pseudotyped virus produced in 293T cells (HIV-1); experiment: cell-based or functional assay
# [17] = target: HIV-1 Env 426c, Env-pseudotyped virus produced in 293S GnTI- cells (Man5-enriched) (HIV-1 clade C strain 426c); experiment: cell-based or functional assay
# [18] = target: HIV-1 clade C strain 426c Env on Env-pseudotyped virus produced in 293T cells (HIV-1); experiment: cell-based or functional assay
# [19] = target: HIV-1 Env 426c.DM (N460D.N463D), Env-pseudotyped virus produced in 293T cells (HIV-1 clade C strain 426c); experiment: cell-based or functional assay
# [20] = target: CH0505TF.gly4 Env, Env-pseudotyped virus produced in 293T cells (HIV-1); experiment: cell-based or functional assay
# [21] = target: HIV-1 Env 426c.TM (N276D.N460D.N463D), Env-pseudotyped virus produced in 293S GnTI- cells (Man5-enriched) (HIV-1 clade C strain 426c); experiment: cell-based or functional assay
# [22] = target: CH0505TF.gly3.276 Env, Env-pseudotyped virus produced in 293T cells (HIV-1); experiment: cell-based or functional assay
# [23] = target: HIV-1 426c.TM (N276D/N460D/N463D) Env on Env-pseudotyped virus produced in 293T cells (HIV-1); experiment: cell-based or functional assay
# [24] = target: HIV-1 Env 426c.TM4 (S278R.G471S.N460D.N463D), Env-pseudotyped virus produced in 293S GnTI- cells (Man5-enriched) (HIV-1 clade C strain 426c); experiment: cell-based or functional assay
# [25] = target: HIV-1 426c.SM (N276D) Env on Env-pseudotyped virus produced in 293s/GnTI-/- cells (Man5-enrichment) (HIV-1); experiment: cell-based or functional assay
# [26] = target: CH0505TF.G458Y Env, Env-pseudotyped virus produced in 293T cells (HIV-1); experiment: cell-based or functional assay
# [27] = target: CH0505TF.gly3.276 Env, pseudotyped virus produced in 293S GnTI- cells (HIV-1); experiment: cell-based or functional assay
# [28] = target: HIV-1 Env 426c.SM (N276D), Env-pseudotyped virus produced in 293S GnTI- cells (Man5-enriched) (HIV-1 clade C strain 426c); experiment: cell-based or functional assay
# [29] = target: HIV-1 clade C strain 426c Env on Env-pseudotyped virus produced in 293s/GnTI-/- cells (Man5-enrichment) (HIV-1); experiment: cell-based or functional assay
# [30] = target: HIV-1 Env 426c.SM (N276D), Env-pseudotyped virus produced in 293T cells (HIV-1 clade C strain 426c); experiment: cell-based or functional assay
# [31] = target: HIV-1 Env 426c.TM (N276D.N460D.N463D), Env-pseudotyped virus produced in 293T cells (HIV-1 clade C strain 426c); experiment: cell-based or functional assay
# [32] = target: HIV-1 Env 426c.DM (N460D.N463D), Env-pseudotyped virus produced in 293S GnTI- cells (Man5-enriched) (HIV-1 clade C strain 426c); experiment: cell-based or functional assay
# [33] = target: HIV-1 Env 426c, Env-pseudotyped virus produced in 293T cells (HIV-1 clade C strain 426c); experiment: cell-based or functional assay
# [34] = target: CH0505TF.gly3.461 Env, pseudotyped virus produced in 293S GnTI- cells (HIV-1); experiment: cell-based or functional assay
# [35] = target: CH0505TF.G458Y Env, pseudotyped virus produced in 293S GnTI- cells (HIV-1); experiment: cell-based or functional assay
# [36] = target: CH0505TF.gly4 Env, pseudotyped virus produced in 293S GnTI- cells (HIV-1); experiment: cell-based or functional assay
# [37] = target: HIV-1 426c.TM (N276D/N460D/N463D) Env on Env-pseudotyped virus produced in 293s/GnTI-/- cells (Man5-enrichment) (HIV-1); experiment: cell-based or functional assay
# [38] = target: HIV-1 426c.DM (N460D/N463D) Env on Env-pseudotyped virus produced in 293T cells (HIV-1); experiment: cell-based or functional assay
# [39] = target: CH0505.w4.3 Env, Env-pseudotyped virus produced in 293T cells (HIV-1); experiment: cell-based or functional assay
# [40] = target: CH0505TF Env, Env-pseudotyped virus produced in 293T cells (HIV-1); experiment: cell-based or functional assay
# [41] = target: HIV-1 426c.DM (N460D/N463D) Env on Env-pseudotyped virus produced in 293s/GnTI-/- cells (Man5-enrichment) (HIV-1); experiment: cell-based or functional assay
# [42] = target: CH0505TF.gly3.197 Env, pseudotyped virus produced in 293S GnTI- cells (HIV-1); experiment: cell-based or functional assay
# [43] = target: HIV-1 Env 426c.TM4 (S278R.G471S.N460D.N463D), Env-pseudotyped virus produced in 293T cells (HIV-1 clade C strain 426c); experiment: cell-based or functional assay
# [44] = target: CH0505TF.gly3.197 Env, Env-pseudotyped virus produced in 293T cells (HIV-1); experiment: cell-based or functional assay
# [45] = target: HIV-1 426c.SM (N276D) Env on Env-pseudotyped virus produced in 293T cells (HIV-1); experiment: cell-based or functional assay
# [46] = target: CH0505TF Env, pseudotyped virus produced in 293S GnTI- cells (HIV-1); experiment: cell-based or functional assay
substance,measurement,setting,value
CH104 (antibody),log AUC,[1],11 log AUC
same,log AUC,[2],12 log AUC
same,log AUC,[3],10.4 log AUC
same,log AUC,[4],10.7 log AUC
same,log AUC,[5],13.7 log AUC
same,log AUC,[6],9 log AUC
same,log AUC,[7],9 log AUC
same,log AUC,[8],10.8 log AUC
same,log AUC,[9],10.4 log AUC
same,log AUC,[10],9.9 log AUC
same,log AUC,[11],11.3 log AUC
3BNC117 (antibody),IC50 (µg/ml) in TZM-bl,[12],> 25 µg/mL
same,IC50 (µg/ml) in TZM-bl,[13],0.03 µg/mL
same,IC50 (µg/ml) in TZM-bl,[14],> 25 µg/mL
same,IC50 (µg/ml) in TZM-bl,[15],0.01 µg/mL
same,IC50 (µg/ml) in TZM-bl,[16],0.002 µg/mL
same,IC50 (µg/ml) in TZM-bl,[17],0.02 µg/mL
same,ID50/IC50 in TZM-bl,[18],0.2 µg/mL
same,IC50 (µg/ml) in TZM-bl,[19],0.13 µg/mL
same,IC50 (µg/ml) in TZM-bl,[20],0.001 µg/mL
same,IC50 (µg/ml) in TZM-bl,[21],0.003 µg/mL
same,IC50 (µg/ml) in TZM-bl,[22],0.001 µg/mL
same,ID50/IC50 in TZM-bl,[23],0.01 µg/mL
same,IC50 (µg/ml) in TZM-bl,[24],< 0.001 µg/mL
same,ID50/IC50 in TZM-bl,[25],0.01 µg/mL
same,IC50 (µg/ml) in TZM-bl,[26],> 25 µg/mL
same,IC50 (µg/ml) in TZM-bl,[27],0.001 µg/mL
same,IC50 (µg/ml) in TZM-bl,[28],0.01 µg/mL
same,ID50/IC50 in TZM-bl,[29],0.02 µg/mL
same,IC50 (µg/ml) in TZM-bl,[30],0.24 µg/mL
same,IC50 (µg/ml) in TZM-bl,[31],0.01 µg/mL
same,IC50 (µg/ml) in TZM-bl,[32],0.006 µg/mL
same,IC50 (µg/ml) in TZM-bl,[33],0.2 µg/mL
same,IC50 (µg/ml) in TZM-bl,[34],0.002 µg/mL
same,IC50 (µg/ml) in TZM-bl,[35],18 µg/mL
same,IC50 (µg/ml) in TZM-bl,[36],0.001 µg/mL
same,ID50/IC50 in TZM-bl,[37],0.003 µg/mL
same,ID50/IC50 in TZM-bl,[38],0.13 µg/mL
same,IC50 (µg/ml) in TZM-bl,[39],0.02 µg/mL
same,IC50 (µg/ml) in TZM-bl,[40],0.03 µg/mL
same,ID50/IC50 in TZM-bl,[41],0.006 µg/mL
same,IC50 (µg/ml) in TZM-bl,[42],0.004 µg/mL
same,IC50 (µg/ml) in TZM-bl,[43],0.003 µg/mL
same,IC50 (µg/ml) in TZM-bl,[44],0.005 µg/mL
same,ID50/IC50 in TZM-bl,[45],0.24 µg/mL
same,IC50 (µg/ml) in TZM-bl,[46],0.01 µg/mL
CH105 (antibody),log AUC,[1],11 log AUC
same,log AUC,[2],11.7 log AUC
same,log AUC,[3],11.2 log AUC
same,log AUC,[4],9.1 log AUC
same,log AUC,[5],13.5 log AUC
same,log AUC,[6],8.6 log AUC
same,log AUC,[7],8.9 log AUC
same,log AUC,[8],10.1 log AUC
same,log AUC,[9],10.4 log AUC
same,log AUC,[10],9 log AUC
same,log AUC,[11],10.6 log AUC
CH103 lineage intermediate ancestor IA2 (antibody),log AUC,[1],12.1 log AUC
same,log AUC,[2],12.7 log AUC
same,log AUC,[3],10.8 log AUC
same,log AUC,[4],11.1 log AUC
same,log AUC,[5],13.3 log AUC
same,log AUC,[6],7.8 log AUC
same,log AUC,[7],9 log AUC
same,log AUC,[8],11.5 log AUC
same,log AUC,[9],11 log AUC
same,log AUC,[10],9.3 log AUC
same,log AUC,[11],11.5 log AUC
